# Test results: patent US20210002358A1
# B1: PT82 mAb (recombinantly expressed, mouse IgG2a/kappa) (antibody, V domains shown)
# VH: EVKLEESGGGLVQPGGSMKLSCVASGFTFSNYWMNWIRQSPEKGLEWVAQIRLQSDNYATRYAESVKGRFTISRDESKTSVYLQMNNLRTEDTGIYYCTGGTTYWGQGTLVTVSA
# VL: DIVMTQSQKFMSTSVGDRVSITCKASQNVGTAVAWYQQKPGQSPKLLIYSASIRYTGVPDRFTGSGSGTDFTLTINYMQSEDLADYFCQQFSSYPYTFGGGTKLEIK
# Target: tau seeds in spinal cord homogenates of P301S transgenic mice (aggregated transgenic human tau) (human), P10636
# Assay: cell-based or functional assay
# Chain of tau seeds in spinal cord homogenates of P301S transgenic mice (aggregated transgenic human tau) (human), P10636 (P10636 other isoform, or with tags, fused parts or gaps P301S P301S): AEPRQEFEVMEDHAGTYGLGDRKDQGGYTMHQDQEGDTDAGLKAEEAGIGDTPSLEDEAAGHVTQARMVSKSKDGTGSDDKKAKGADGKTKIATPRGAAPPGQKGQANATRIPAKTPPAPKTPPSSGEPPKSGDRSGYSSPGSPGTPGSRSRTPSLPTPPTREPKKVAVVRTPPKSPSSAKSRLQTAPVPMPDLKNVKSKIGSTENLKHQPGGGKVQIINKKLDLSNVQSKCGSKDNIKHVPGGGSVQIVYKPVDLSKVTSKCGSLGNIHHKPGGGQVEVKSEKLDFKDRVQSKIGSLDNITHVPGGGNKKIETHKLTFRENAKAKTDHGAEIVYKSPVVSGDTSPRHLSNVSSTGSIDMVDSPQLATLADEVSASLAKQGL
binder,measurement,value
B1,"K18 aggregate formation, FRET-positive HEK cells counted by FACS",3 nM
